# Test results published in publication PMC2064543.
# Target: adenomatous polyposis coli (APC), endogenous in Xenopus egg extracts (Xenopus laevis (endogenous in egg extracts)) (UniProt P70039)
# Experiment: co-IP
# Chain of UniProt P70039 (P70039 whole entry): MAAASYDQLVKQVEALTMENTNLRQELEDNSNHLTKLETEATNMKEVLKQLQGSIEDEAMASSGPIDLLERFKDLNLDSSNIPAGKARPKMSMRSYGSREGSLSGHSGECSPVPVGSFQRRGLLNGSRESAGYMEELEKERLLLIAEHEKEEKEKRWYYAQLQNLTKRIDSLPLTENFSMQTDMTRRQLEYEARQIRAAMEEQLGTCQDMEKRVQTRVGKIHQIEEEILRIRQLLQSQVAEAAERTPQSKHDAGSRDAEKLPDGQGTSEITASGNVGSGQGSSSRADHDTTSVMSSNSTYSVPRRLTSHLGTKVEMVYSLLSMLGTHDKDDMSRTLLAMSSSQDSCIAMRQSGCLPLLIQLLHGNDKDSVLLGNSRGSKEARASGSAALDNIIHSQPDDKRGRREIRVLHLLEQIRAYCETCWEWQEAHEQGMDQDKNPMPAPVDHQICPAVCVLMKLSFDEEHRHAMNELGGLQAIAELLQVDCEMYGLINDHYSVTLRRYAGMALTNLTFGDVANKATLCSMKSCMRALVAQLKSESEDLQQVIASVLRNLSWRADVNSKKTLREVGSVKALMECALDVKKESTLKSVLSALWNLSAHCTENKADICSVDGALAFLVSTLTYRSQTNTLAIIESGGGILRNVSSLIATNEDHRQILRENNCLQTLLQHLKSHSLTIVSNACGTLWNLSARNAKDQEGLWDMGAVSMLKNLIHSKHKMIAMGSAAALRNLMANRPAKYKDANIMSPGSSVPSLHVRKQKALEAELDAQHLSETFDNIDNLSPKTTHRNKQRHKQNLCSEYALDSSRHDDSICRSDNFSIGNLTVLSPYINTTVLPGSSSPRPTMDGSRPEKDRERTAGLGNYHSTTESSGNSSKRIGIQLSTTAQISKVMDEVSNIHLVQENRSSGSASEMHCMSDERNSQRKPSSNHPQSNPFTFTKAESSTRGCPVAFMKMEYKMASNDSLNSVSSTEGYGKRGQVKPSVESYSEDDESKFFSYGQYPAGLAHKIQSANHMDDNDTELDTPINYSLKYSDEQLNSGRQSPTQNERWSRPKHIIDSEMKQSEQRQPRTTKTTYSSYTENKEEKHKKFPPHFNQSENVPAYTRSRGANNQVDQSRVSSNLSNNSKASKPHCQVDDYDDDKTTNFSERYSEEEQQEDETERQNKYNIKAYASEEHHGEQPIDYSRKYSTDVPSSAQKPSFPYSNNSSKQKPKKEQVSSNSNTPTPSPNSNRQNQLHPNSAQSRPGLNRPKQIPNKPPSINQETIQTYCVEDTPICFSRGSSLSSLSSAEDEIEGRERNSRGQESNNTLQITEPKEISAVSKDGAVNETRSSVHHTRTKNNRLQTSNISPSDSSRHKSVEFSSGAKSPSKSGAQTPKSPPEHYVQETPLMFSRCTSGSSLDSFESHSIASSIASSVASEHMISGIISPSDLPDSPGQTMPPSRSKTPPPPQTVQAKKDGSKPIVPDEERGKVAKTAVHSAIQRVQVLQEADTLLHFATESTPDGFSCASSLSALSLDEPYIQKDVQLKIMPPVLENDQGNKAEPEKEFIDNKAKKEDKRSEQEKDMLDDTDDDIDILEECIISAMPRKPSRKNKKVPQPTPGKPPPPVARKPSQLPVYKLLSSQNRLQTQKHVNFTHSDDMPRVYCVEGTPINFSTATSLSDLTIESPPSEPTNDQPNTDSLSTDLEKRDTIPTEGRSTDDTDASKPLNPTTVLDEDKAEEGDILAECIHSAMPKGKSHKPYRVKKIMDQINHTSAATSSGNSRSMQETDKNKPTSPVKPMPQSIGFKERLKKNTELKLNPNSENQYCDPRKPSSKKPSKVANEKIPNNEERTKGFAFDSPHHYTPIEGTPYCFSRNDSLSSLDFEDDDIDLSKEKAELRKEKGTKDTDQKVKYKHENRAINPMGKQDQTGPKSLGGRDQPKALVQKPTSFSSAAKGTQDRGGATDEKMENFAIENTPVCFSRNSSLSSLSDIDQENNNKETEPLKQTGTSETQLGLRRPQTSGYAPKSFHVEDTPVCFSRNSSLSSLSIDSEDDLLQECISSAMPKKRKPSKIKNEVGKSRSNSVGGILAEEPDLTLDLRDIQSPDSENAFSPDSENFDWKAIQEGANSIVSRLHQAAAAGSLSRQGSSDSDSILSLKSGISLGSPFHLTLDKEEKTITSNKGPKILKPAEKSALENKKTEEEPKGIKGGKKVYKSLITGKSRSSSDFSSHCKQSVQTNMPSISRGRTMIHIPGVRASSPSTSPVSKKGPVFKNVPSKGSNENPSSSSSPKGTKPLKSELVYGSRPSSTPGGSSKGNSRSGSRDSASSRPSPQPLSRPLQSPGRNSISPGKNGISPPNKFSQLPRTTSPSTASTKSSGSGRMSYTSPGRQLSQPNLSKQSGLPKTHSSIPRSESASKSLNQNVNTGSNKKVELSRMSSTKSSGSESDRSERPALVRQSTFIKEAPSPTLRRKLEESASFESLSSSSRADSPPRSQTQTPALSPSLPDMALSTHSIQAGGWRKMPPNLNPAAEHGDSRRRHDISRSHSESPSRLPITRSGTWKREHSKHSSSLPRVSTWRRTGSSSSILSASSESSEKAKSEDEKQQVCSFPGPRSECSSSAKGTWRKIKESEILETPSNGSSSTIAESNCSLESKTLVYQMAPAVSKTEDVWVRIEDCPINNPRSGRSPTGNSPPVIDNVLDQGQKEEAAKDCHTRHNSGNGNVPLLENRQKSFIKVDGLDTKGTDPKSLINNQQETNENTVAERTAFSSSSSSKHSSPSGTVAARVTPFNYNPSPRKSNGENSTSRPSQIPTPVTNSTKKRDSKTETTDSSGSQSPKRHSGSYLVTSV
substance,measurement,value
GST–KD-BubR1 (recombinant Xenopus kinase-dead BubR1) (from UniProt B7ZQ97 1-1041) (natural protein),percent less coimmunoprecipitated with APC than WT-BubR1,40%
